In patent US9732101B2, “Bioreversible boronates for delivery of molecules into cells” (WISCONSIN ALUMNI RESEARCH FOUNDATION, priority 2012, dated 2017):

Experiments:
[1] = Heparin-affinity assay (retention on immobilized heparin column); assay type: binding; conditions: for retention on column of heparin in presence of fructose: 0.10 M fructose in elution buffer
Experimental: To assess the affinity of boronated proteins for oligosaccharides the retention of boronated proteins compared to unmodified protein can be measured on a heparin column.
For example, the affinity of unmodified and benzoboroxole-boronated RNase A for heparin was assessed by retention on a 1.0-mL HiTrap Heparin HP column (GE Healthcare, Piscataway, N.J.). Unmodified and benzoboroxole-boronated RNase A were mixed in a 1:1 ratio (2.0 mg each) in DPBS, and the resulting solution was loaded onto the column. The column was washed with 5 mL of PBS, followed by elution with 45 mL of a linear gradient of NaCl (0.0-1.0 M) in PBS. Elution was monitored by absorbance at 280 nm, and eluted proteins were identified by mass spectrometry. FIG. 2 illustrates an elution profile of a mixture of unmodified RNase A and benzoboroxole-boronated RNase A from a column of immobilized heparin (solid lines). A small amount of unmodified RNase A was apparent in peak B (FIG. 2). It is currently believed that benzoboroxole-boronated RNase A was able to complex to a small amount of unmodified RNase A and extend its elution time. The same assay was then repeated with 100 mM fructose in both buffers (FIG. 2, dashed line). To make fructose-supplemented buffers, fructose (18 g, 100 mmol) was added to 100 mL of a 10× stock solution of PBS, either no additional NaCl or NaCl (58.4 g, 1.00 mol) was added, and both buffers were diluted to a final volume of 1 L and adjusted to pH 7.4.

Lec-2 cells = test: Cellular internalization by flow cytometry; assay type: cell-based, Chinese hamster
Experimental: (§1) Cell lines were obtained from American Type Culture Collection (Manassas, Va.) and were maintained according to the recommended procedures. Cells were grown in a cell culture incubator at 37° C. under CO2 (5% v/v) in flat-bottomed culture flasks. Cell medium was supplemented with GIBCO fetal bovine serum (FBS) (10% v/v), penicillin (100 units/mL), and streptomycin (100 μg/mL) in the appropriate cellular medium as follows: Pro-5, MEM α+ribonucleosides+deoxyribonucleosides; Lec-2, MEM α-ribonucleosides-deoxyribonucleosides; and K562, RPMI 1640. Cells were counted by hemocytometry for dispensing into 12-well plates (Corning Costar, Lowell, Mass.) or 8-well chambered coverglass slides (Nuc Lab-Tek II, Thermo Scientific).
(§2) BODIPY-FL was excited with a 488 nm solid-state laser and the emission was collected with a 530/30 bandpass filter. To collect the most reproducible data, for every flow cytometry experiment, the sensitivity (voltage) of the photomultiplier tube was set for all data collections using mid-range Rainbow beads from Spherotech (Lake Forest, Ill.) to a predetermined fluorescence target value. At least 10,000 cellular events were acquired for each sample. Data were analyzed using FlowJo 8.1.3 (Treestar, Ashland, Oreg.).
(§3) The day prior to an experiment, Pro-5 and Lec-2 cells were plated in 12-well plates at 1×10^5 cells/well. The day of the experiment, the appropriate amount of fructose was dissolved into the cellular medium to obtain a final fructose concentration of 250 mM, and the medium was passed through a 0.45-μm syringe filter from Whatman (Piscataway, N.J.). Non-fructose-containing medium was filtered likewise. Stock solutions of fluorescently labeled ribonucleases were diluted into the cell culture to a final concentration of 5 μM. Ribonucleases were incubated with cells for 4 h. Cells were then rinsed with PBS (2×400 μL), removed from the cell culture plate with trypsin (400 μL, 0.05% (1×) with EDTA; Invitrogen, Carlsbad, Calif.), placed in flow cytometry tubes containing 80 μL of FBS, and incubated on ice until analyzed by flow cytometry. Final fluorescence values were divided by the percent fluorophore labeling of the ribonuclease to determine the corrected value of fluorescence. Experiments were run twice in triplicate unless otherwise indicated. Data is illustrated in FIG. 4A and FIG. 4C.

Pro-5 cells = test: Cellular internalization by flow cytometry; assay type: cell-based, Chinese hamster
Experimental: as §1, §2, §3

[2] = 5 μM, 4 h, relative to unmodified RNase A

B1: benzoboroxole-boronated RNase A: RNase A with 5-amino-2-hydroxymethylphenylboronic acid conjugated to protein carboxyl groups by carbodiimide condensation (conjugate, UniProt P61823 27-150, looked up)
Ribonuclease pancreatic: KETAAAKFERQHMDSSTSAASSSNYCNQMMKSRNLTKDRCKPVNTFVHESLADVQAVCSQKNVACKNGQTNCYQSYSTMSITDCRETGSSKYPNCAYKTTQANKHIIVACEGNPYVPVHFDASV
modifications: benzoboroxole conjugated to carboxyl groups
notes: RNase A with 5-amino-2-hydroxymethylphenylboronic acid conjugated to protein carboxyl groups by carbodiimide condensation
retention on column of heparin in presence of fructose [1]: diminishing retention
retention on column of heparin in presence of fructose ([1]; listed as boronated RNAse A): diminished the retention
retention on column of heparin ([1]; versus unmodified RNase A, NaCl gradient in PBS): retained longer
increase in cellular uptake (Lec-2 cells; [2]): 4- to 5 fold
effect of fructose on enhancement of cellular uptake (Lec-2 cells; fructose 0.25 M): eliminated
increase in cellular uptake (Pro-5 cells; [2]): 4- to 5 fold
effect of fructose on enhancement of cellular uptake (Pro-5 cells; fructose 0.25 M): eliminated
